The results in this text go back to patent US20240058465A1 (SUTRO BIOPHARMA, published 2024).

Test [1] concerns the target T1, receptor tyrosine kinase orphan receptor 1 (ROR1) on Ntera-2 cells (human, UniProt Q01973 30-937). The test is described as follows: cell-based or functional assay.
Test [2] addresses T1, receptor tyrosine kinase orphan …. Briefly: cell-based or functional assay. The source holds these as a separate data set.
Test [3] shares this target. Briefly: cell-based or functional assay. The source holds these as a separate data set.
Test [4] has as its target T2, human ROR1 (hROR1) (human, UniProt Q01973 30-937). Briefly: cell-based or functional assay.
Test [5] has as its target T3, human ROR1 Frizzled domain (hROR1-Fz) (human, UniProt Q01973 165-305).
T3 construct: Acro Biosystems, made in HEK293
Briefly: SPR Biacore, IgG on anti-Fc, ROR1-Fz analyte. Put shortly:
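Test antibodies captured on an anti-Fc surface (CM5 chip), then analyte bound for 180 s with 600 s dissociation at 25° C in HBS-EP+ buffer at 50 μL/min. Human ROR1 ECD, Frizzled or Kringle domain used as analyte; regeneration with 10 mM glycine pH 2.0.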

The target of test [6] is ROR1 (recombinant protein coated on the ELISA plate, Example 11) (UniProt Q01973 30-403, limits assumed). The test is described as follows: ELISA: ROR1 coated on the plate, antibody titrated 3-fold from 5 ug/mL, HRP anti-human Fc, chemiluminescence (ELISA RLU). From the text:
The anti-ROR1 lead antibodies were discovered from a Fab ribosome display library that contained CDR H1, H2, and H3 diversity and utilized a constant LC (trastuzumab LC). In this example, the HCs of the lead antibodies were co-expressed with trastuzumab LC or different LCs derived from anti-CD3 antibodies: hOKT3-LC1, hSP34-LC3, hUCHT1-LC3 to determine if the anti-ROR1 HC leads would retain binding to ROR1 when assembled with anti-CD3 LCs. […] The antibodies were then purified and tested for ROR1 binding by ELISA. The ELISA assay was carried out as follows. Briefly, 2 μg/mL of ROR1 was coated to a 384-well polystyrene plate for 1 hr at 30° C. in 0.1 M bicarbonate pH8.9 buffer before it was washed and blocked with 2% BSA in PBST (PBS, 0.1% Tween20) for 1 hr. Antibody variants were diluted to 5 μg/mL and further serially diluted 3-fold before 30 μL was applied to the ELISA plates for binding ([…] Antibody binding was detected via HRP-conjugated anti-human Fc antibodies (Jackson Immunoresearch) and detection with SuperSignal ELISA Pico Chemiluminescent Substrate (Pierce).

The target of test [7] is T4, human ROR1 frizzled domain (hROR1-Fz) (human, UniProt Q01973 165-305).
T4 construct: From Acro Biosystems
Briefly: SPR kinetic screen (Biacore), antibody captured as ligand (Fc=3-1), sample ROR1 Fz, 25 C, 1:1 binding model; fit to a low response of at most about 2 on the response axis; Table 7 lists this pair as 'Not detected'.

Test [8] has as its target T2, human ROR1 (hROR1). Briefly: flow cytometry, HCT116-hROR1 cells. (In general: Flow cytometry measures light scatter and fluorescence of single cells or particles in a stream.)
Test [9] concerns the target T5, human ROR1 extracellular domain (human, UniProt Q01973 30-406).
T5 construct: Bought recombinant protein (Acro Biosystems); also called ROR1 ECD; hROR1
Briefly: SPR (Biacore T200), IgG captured by anti-human Fc, ROR1 ECD as analyte, 1:1 Langmuir fit. How it is done: The data was fit with the Biacore™ T200 Evaluation software, using a 1-1 Langmuir binding model. KD (affinity, nM) was determined as a ratio of the kinetic rate constants calculated from the fits of the association and dissociation phases.

The target in test [10] is T6, human ROR1 Immunoglobulin domain (Ig, residues 39-151) with C-terminal HIS6 tag (human, UniProt Q01973 39-151).
T6 construct: Made in HEK293 cells and purified (Acro Biosystems)
The test is described as follows: SPR kinetic screen (Biacore), antibody captured as ligand (Fc=2-1), sample printed as ROR1 Ig, 25 C, 1:1 binding model. A general note: In SPR one partner is held on a chip, and binding of the other changes the refractive index at the surface.

Test [11] has as its target T6, human ROR1 Immunoglobulin domain (Ig, …). The test is described as follows: SPR kinetic screen (Biacore), antibody captured as ligand (Fc=4-1), sample printed as ROR1 Ig, 25 C, 1:1 binding model; fit to a flat sensorgram.
Test [12] shares this target. Briefly: SPR kinetic screen (Biacore), antibody captured as ligand (Fc=2-1), sample printed as ROR1 Ig, 25 C, 1:1 binding model. The source holds these as a separate data set.

Positions count from the first letter of the chain named. Read-outs that look alike come from different tables or passages of the source. Some results are limits rather than exact numbers.

B1: Conjugate 46 (D04-Y180/F241/F404/K42-LP3) (antibody, human IgG1, kappa)
heavy: MEVQLVESGGGLVQPGGSLRLSCAASGFNISDYDIHWVRQAPGKGLEWVGGIDPADGSTDYADSVKGRFTISADTSKNTAYLQMNSLRAEDTAVYYCARDYGVYDYWGQGTLVTVSSASTKGPSVFPLAPSSKSTSGGTAALGCLVKDYFPEPVTVSWNSGALTSGVHTFPAVLQSSGLSLSSVVTVPSSSLGTQTYICNVNHKPSNTKVDKKVEPKSCDKTHTCPPCPAPELLGGPSVLFPPKPKDTLMISRTPEVTCVVVDVSHEDPEVKFNWYVDGVEVHNAKTKPREEQYNSTYRVVSVLTVLHQDWLNGKEYKCKVSNKALPAPIEKTISKAKGQPREPQVYTLPPSREEMTKNQVSLTCLVKGFYPSDIAVEWESNGQPENNYKTTPPVLDSDGSFLYSKLTVDKSRWQQGNVFSCSVMHEALHNHYTQKSLSLSPGK
light: MDIQMTQSPSSLSASVGDRVTITCRASQDVNTAVAWYQQKPGAPKLLIYSASFLYSGVPSRFSGSRSGTDFTLTISSLQPEDFATYYCQQHYTTPPTFGQGTKVEIKRTVAAPSVFIFPPSDEQLKSGTASVVCLLNNFYPREAKVQWKVDNALQSGNSQESVTEQDSKDSTYSLSSTLTLSKADYEKHKVYACEVTHQGLSSPVTKSFNRGEC
modifications: pAMF at K42, linked to LP3; pAMF at Y180, F241 and F404 (EU), each linked to LP3
For B1, in test [1], the “cell killing EC50, NTERA-2 cells” value turned out to be 0.042 nM and the “cell killing Span, NTERA-2 cells” value is 51%. Moreover, the “cell killing EC50, NTERA-2 cells” value in test [2] stood at 0.045 nM. Besides, in test [3], the “Cell Killing on Ntera2 Cells, EC50, With 1 uM 2188-D04” value was less than 10 nM and the “Cell Killing on Ntera2 Cells, EC50, Without 2188-D04” value was found to be 0.038 nM.

B2: Conjugate 47 (D04-Y180/F241/F404/K42-LP4) (antibody, human IgG1, kappa)
heavy: B1 heavy
light: B1 light
modifications: pAMF at K42, linked to LP4; pAMF at Y180, F241 and F404 (EU), each linked to LP4
With B2, in test [1], the “cell killing EC50, NTERA-2 cells” value stood at 0.005 nM and the “cell killing Span, NTERA-2 cells” value is 96%. In addition, the “cell killing EC50, NTERA-2 cells” value in [2] stood at 0.007 nM. In test [3], the “Cell Killing on Ntera2 Cells, EC50, With 1 uM 2188-D04” value is less than 10 nM and the “Cell Killing on Ntera2 Cells, EC50, Without 2188-D04” value came to 0.008 nM.

B3: SRP1944-A07 (with trastuzumab LC) (antibody, IgG1, V domains shown)
VH: EVQLVESGGGLVQPGGSLRLSCAASGFNITGYYIHWVRQAPGKGLEWVGYISPNSGSTYYADSVKGRFTISADTSKNTAYLQMNSLRAEDTAVYYCARDSRRYVRPFDYWGQGTLVTVSS
VL: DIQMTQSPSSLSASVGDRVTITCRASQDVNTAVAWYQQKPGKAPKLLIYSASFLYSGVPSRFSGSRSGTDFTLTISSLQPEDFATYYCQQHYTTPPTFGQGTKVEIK
notes: Parent of SRP2194; His/FLAG-tagged IgG1, cell-free; also called Antibody 126
In general, Kd refers to the constant that tells how readily two partners part at equilibrium. Higher therefore signals lower affinity. Usually koff stands for the first-order rate constant of dissociation. A lower koff goes with slow dissociation. As usually defined, the kon is a measure of how fast the partners come together. A lower kon goes with slow association. For the molecule B3, the “Mino Nb-PBD, drug-conjugated 2° antibody Cell Killing EC50” value in the test with human ROR1 (hROR1) [4] is 0.01 nM. In test [5], this molecule had a Kd of 24.5 nM, a koff of 0.01 s⁻¹ and a kon of 559000 M⁻¹ s⁻¹.

B4: 1944-A07 HC co-expressed with hOKT3-LC1 light chain (antibody, V domains shown)
VH: B3 VH
VL: DIQMTQSPSSLSASVGDRVTITCSASSSVSYMNWYQQKPGKAPKRLIYDTSKLASGVPSRFSGSGSGTEYTLTISSLQPEDFATYYCQQWSSNPFTFGQGTKLEIK
notes: Only variable domains are tied to this pairing
By EC50 (read off the curve) is commonly meant the concentration needed to bring the measured effect to its halfway point. B4: in test [6], the half-maximal effective concentration (EC50 (read off the curve)) was roughly 0.05 µg/mL. In test [7], this molecule had a dissociation constant Kd of 17.9 nM, a koff of 0.0137 s⁻¹ and an on-rate (kon) of 763000 M⁻¹ s⁻¹.

B5: SRP2194-A05 (antibody, IgG1, V domains shown)
VH: B3 VH with T30K, G31E, Y33H, S100H
VL: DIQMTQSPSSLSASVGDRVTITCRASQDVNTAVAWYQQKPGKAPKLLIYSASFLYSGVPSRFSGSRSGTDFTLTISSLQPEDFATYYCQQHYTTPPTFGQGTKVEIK
notes: His/FLAG-tagged IgG1, cell-free
Consider B5, for which the “Mino Nb-PBD, drug-conjugated 2° antibody Cell Killing EC50” value with human ROR1 (hROR1) [4] came out at 0.002 nM. Also, in the test with human ROR1 (hROR1) [8], the “Bmax (MFI)” value came out at 8810 MFI and the Kd is 0.31 nM. In test [5], this molecule came in with a dissociation constant Kd of 1.54 nM, an off-rate constant (koff) of 0.000317 s⁻¹ and an on-rate (kon) of 206000 M⁻¹ s⁻¹.

B6: 1987-C05 HC with Trastuzumab LC (antibody, V domains shown)
VH: EVQLVESGGGLVQPGGSLRLSCAASGFNISDYDIHWVRQAPGKGLEWVGGIDPDDGSTDYADSVKGRFTISADTSKNTAYLQMNSLRAEDTAVYYCARDYGVFDYWGQGTLVTVSS
VL: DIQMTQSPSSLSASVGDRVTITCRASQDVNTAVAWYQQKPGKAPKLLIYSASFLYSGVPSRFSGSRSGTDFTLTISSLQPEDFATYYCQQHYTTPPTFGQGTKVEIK
notes: also called 1987-C05 HC w/trstmb LC (parent IgG); SRP1987-C05
In [9], B6 showed a Kd of 0.277 nM, a dissociation rate constant (koff) of 0.000673 s⁻¹ and a kon of 2.43e+06 M⁻¹ s⁻¹. In test [10], this molecule showed a dissociation constant (Kd) of 0.00859 nM, an off-rate constant (koff) of 0.000705 s⁻¹ and a kon of 8.2e+07 M⁻¹ s⁻¹. For the same molecule, the “EC50 (read off the curve)” value in test [6] is roughly 0.04 µg/mL.

B7: 1987-C05 HC co-expressed with hSP34-LC3 light chain (antibody, V domains shown)
VH: B6 VH
VL: QTVVTQEPSLTVSPGGTVTLTCGSSTGAVTSGYYPNWFQQKPGQAPRGLIGGTKFLAPGTPARFSGSLLGGKAALTLSGVQPEDEAEYYCALWYSNRWVFGGGTQLTVTG
notes: Only variable domains are tied to this pairing; also called 1987-C05 w/hSP34 LC3; 1987-C05 variant
For the molecule B7, in test [11], the dissociation constant (Kd) came to 34.1 nM, the off-rate (koff) was determined as 0.00133 s⁻¹ and the kon is 38900 M⁻¹ s⁻¹.

B8: 1987-C05 HC co-expressed with hUCHT1-LC3 light chain (antibody, V domains shown)
VH: B6 VH
VL: DIQMTQSPSTLSASVGDRVTITCRASQDIRNYLNWYQQKPGKAPKLLIYYTSRLHSGVPSRFSGSGSGTEYTLTISSLQPDDFATYYCQQGNTLPWTFGGGTKVEIK
notes: Only variable domains are tied to this pairing; also called 1987-C05 w/hUCHT1 LC3; 1987-C05 variant
In test [12], B8 returned a dissociation constant Kd of 2.6 nM, a koff of 0.133 s⁻¹ and an on-rate (kon) of 5.11e+07 M⁻¹ s⁻¹. Moreover, the “EC50 (read off the curve)” value in test [6] was roughly 0.03 µg/mL.
